From patent publication US20180155451A1 (published 2018)

T1: FcγRIIa H (FcγRIIa, allotype with His at position 131), extracellular domain with C-terminal His tag (human, UniProt P12318 34-217)
T1 construct: extracellular domain; Soluble receptor expressed in FreeStyle293 cells and used as the analyte in Biacore; also called FcgRIIa H; FcγRIIa type H; not shown: His tag attached to the C terminus
T1 sequence (looked up): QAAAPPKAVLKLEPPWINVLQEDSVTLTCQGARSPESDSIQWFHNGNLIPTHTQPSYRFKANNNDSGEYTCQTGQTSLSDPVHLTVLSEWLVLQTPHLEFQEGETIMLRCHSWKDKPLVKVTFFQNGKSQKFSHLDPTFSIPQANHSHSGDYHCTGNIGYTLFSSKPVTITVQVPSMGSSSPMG

B1: GpH7-B3 variant T335_02A/GpL16-k0 (homodimerized antibody, Ho Ab) (antibody, human IgG1, kappa)
heavy: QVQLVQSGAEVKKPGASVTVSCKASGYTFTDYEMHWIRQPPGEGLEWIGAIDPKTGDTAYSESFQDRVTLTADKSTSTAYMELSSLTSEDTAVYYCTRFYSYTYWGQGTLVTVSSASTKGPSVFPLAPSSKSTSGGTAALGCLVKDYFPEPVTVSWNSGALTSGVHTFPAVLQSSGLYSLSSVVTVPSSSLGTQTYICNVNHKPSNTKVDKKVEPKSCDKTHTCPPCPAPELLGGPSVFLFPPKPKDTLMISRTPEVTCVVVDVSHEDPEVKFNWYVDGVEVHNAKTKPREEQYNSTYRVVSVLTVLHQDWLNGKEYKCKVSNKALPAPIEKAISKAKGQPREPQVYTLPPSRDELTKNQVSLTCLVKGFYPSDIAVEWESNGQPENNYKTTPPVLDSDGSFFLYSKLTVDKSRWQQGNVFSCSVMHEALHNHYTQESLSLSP
light: DIVMTQSPLSLPVTPGEPASISCQASESLVHSNRNTYLHWYLQKPGQSPQLLIYKVSNRFSGVPDRFSGSGSGTDFTLKISRVEAEDVGVYYCSQNTHVPPTFGQGTKVEIERTVAAPSVFIFPPSDEQLKSGTASVVCLLNNFYPREAKVQWKVDNALQSGNSQESVTEQDSKDSTYSLSSTLTLSKADYEKHKVYACEVTHQGLSSPVTKSFNRGEC
notes: Anti-glypican-3 IgG1 (G1d with K439E = GpH7-B3); the substitution stands in both H chains; also called Ho Ab T335A
B2: GpH7-B3 variant T335_06M/GpL16-k0 (homodimerized antibody, Ho Ab) (antibody, human IgG1, kappa)
heavy: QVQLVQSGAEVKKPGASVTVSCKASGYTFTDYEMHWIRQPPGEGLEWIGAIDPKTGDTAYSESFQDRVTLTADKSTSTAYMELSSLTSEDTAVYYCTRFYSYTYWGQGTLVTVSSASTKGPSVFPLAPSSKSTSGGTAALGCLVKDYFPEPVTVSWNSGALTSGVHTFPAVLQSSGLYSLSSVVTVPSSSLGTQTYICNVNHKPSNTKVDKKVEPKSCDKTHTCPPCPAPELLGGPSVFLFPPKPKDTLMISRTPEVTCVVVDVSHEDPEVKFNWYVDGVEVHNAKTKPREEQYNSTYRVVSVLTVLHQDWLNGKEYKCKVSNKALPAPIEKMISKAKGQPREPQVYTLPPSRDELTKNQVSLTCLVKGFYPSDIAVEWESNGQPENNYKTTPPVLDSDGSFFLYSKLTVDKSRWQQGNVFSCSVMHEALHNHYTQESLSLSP
light: B1 light
notes: Anti-glypican-3 IgG1 (GpH7-B3 background); substitution in both H chains; Position is EU numbering; also called Ho Ab T335M
B3: GpH7-B3 variant T335_09D/GpL16-k0 (homodimerized antibody, Ho Ab) (antibody, human IgG1, kappa)
heavy: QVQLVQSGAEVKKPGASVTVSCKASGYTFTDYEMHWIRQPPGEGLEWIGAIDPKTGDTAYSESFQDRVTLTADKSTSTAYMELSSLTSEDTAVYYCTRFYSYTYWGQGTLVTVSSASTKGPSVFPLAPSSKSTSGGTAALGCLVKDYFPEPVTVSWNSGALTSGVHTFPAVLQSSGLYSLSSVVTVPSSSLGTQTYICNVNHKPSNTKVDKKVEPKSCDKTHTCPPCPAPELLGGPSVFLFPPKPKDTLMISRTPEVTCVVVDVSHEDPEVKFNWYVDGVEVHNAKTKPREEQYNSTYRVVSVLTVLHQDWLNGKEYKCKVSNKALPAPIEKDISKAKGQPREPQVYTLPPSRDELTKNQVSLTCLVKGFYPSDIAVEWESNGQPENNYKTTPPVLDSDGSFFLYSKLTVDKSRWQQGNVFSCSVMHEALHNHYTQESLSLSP
light: B1 light
notes: Anti-glypican-3 IgG1 (GpH7-B3 background); substitution in both H chains; Position is EU numbering; also called Ho Ab T335D
B4: GpH7-B3 variant Y300_07I/GpL16-k0 (homodimerized antibody, Ho Ab) (antibody, human IgG1, kappa)
heavy: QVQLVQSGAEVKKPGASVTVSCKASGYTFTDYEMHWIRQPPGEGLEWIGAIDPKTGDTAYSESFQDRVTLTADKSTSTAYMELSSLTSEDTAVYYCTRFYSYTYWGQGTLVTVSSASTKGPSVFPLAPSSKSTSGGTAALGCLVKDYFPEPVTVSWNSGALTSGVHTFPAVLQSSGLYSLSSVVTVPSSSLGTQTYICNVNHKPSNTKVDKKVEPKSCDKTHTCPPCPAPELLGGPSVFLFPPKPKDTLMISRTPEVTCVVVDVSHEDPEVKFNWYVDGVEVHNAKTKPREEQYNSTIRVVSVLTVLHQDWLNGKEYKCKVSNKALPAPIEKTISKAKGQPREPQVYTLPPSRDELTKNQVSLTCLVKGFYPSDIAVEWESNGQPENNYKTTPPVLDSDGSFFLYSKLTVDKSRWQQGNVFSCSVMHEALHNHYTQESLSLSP
light: B1 light
notes: Anti-glypican-3 IgG1 (GpH7-B3 background); substitution in both H chains; Position is EU numbering; also called Ho Ab Y300I
B5: GpH7-B3 variant T335_04F/GpL16-k0 (homodimerized antibody, Ho Ab) (antibody, human IgG1, kappa)
heavy: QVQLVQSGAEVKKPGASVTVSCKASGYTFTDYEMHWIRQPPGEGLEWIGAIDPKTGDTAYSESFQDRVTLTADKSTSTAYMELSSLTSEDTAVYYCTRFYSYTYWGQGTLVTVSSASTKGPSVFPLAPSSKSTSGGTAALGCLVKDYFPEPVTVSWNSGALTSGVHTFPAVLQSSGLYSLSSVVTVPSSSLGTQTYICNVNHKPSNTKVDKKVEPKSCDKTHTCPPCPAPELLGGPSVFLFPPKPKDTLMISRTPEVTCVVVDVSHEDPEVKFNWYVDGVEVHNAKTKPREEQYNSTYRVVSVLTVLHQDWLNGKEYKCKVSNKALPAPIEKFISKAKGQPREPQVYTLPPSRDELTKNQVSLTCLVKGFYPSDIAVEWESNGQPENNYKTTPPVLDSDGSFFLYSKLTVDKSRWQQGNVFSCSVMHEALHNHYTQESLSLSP
light: B1 light
notes: Anti-glypican-3 IgG1 (GpH7-B3 background); substitution in both H chains; Position is EU numbering; also called Ho Ab T335F
B6: GpH7-B3 variant Y300_06M/GpL16-k0 (homodimerized antibody, Ho Ab) (antibody, human IgG1, kappa)
heavy: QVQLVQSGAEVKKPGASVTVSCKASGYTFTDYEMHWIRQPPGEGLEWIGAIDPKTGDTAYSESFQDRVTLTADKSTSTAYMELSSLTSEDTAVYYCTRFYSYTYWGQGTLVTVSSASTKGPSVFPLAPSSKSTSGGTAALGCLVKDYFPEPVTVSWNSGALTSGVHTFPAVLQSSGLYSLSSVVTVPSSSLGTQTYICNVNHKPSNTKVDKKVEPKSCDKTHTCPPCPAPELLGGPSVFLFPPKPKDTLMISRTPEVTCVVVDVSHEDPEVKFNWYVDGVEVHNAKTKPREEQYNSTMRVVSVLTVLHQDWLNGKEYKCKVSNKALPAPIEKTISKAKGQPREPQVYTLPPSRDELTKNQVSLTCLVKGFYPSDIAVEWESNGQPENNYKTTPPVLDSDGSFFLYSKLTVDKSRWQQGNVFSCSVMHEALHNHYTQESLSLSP
light: B1 light
notes: Anti-glypican-3 IgG1 (GpH7-B3 background); substitution in both H chains; Position is EU numbering; also called Ho Ab Y300M
B7: GpH7-B3 variant T335_08L/GpL16-k0 (homodimerized antibody, Ho Ab) (antibody, human IgG1, kappa)
heavy: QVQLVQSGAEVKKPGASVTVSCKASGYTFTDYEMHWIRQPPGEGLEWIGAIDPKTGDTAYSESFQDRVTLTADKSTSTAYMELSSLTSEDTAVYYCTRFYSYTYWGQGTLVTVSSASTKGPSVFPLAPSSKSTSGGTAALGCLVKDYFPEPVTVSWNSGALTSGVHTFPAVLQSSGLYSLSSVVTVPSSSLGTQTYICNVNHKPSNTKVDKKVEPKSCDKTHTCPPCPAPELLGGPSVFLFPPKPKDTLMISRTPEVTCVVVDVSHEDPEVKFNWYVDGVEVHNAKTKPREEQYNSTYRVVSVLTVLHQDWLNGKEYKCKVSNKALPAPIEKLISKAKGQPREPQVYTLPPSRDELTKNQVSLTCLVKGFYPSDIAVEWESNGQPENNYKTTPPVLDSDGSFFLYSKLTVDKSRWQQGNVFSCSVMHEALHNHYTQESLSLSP
light: B1 light
notes: Anti-glypican-3 IgG1 (GpH7-B3 background); substitution in both H chains; Position is EU numbering; also called Ho Ab T335L

target: T1, FcγRIIa H (FcγRIIa, allotype with His …); assay: SPR (Biacore T100), antibody captured on antigen-peptide chip, FcγRIIa H as analyte; response per captured antibody relative to GpH7-B3/GpL16-k0
Method: Analysis of interaction between objective antibody and the FcγR was carried out using Biacore T100 (GE Healthcare). HBS-EP+ (GE Healthcare) was used as the running buffer, and the measurement temperature was set to 25° C. Chips produced by immobilizing the antigen peptide by the amine coupling method to a Series S Sencor Chip CM5 (GE Healthcare), or alternatively, chips produced by allowing preliminarily biotinylated antigen peptides to interact with and immobilize onto a Series S Sensor Chip SA (certified) (GE Healthcare) were used. Antibodies of interest were captured onto an antigen peptide-immobilized chip, and allowed to interact to each FcγR diluted with running buffer. To regenerate and repeatedly use the chip, the antibodies captured on the chip were washed off by reacting 10 mM glycine-HCl, pH 1.5.

| Ho/Con_2aH | Binder |
| --- | --- |
| 103 relative binding activity (control homodimerized antibody GpH7-B3/GpL16-k0 = 100) | B1 |
| 106 relative binding activity (control homodimerized antibody GpH7-B3/GpL16-k0 = 100) | B2 |
| 110 relative binding activity (control homodimerized antibody GpH7-B3/GpL16-k0 = 100) | B3 |
| 122 relative binding activity (control homodimerized antibody GpH7-B3/GpL16-k0 = 100) | B4 |
| 104 relative binding activity (control homodimerized antibody GpH7-B3/GpL16-k0 = 100) | B5 |
| 106 relative binding activity (control homodimerized antibody GpH7-B3/GpL16-k0 = 100) | B6 |
| 106 relative binding activity (control homodimerized antibody GpH7-B3/GpL16-k0 = 100) | B7 |
